Publication PMC11020753, “Contribution of amino acids in the active site of dipeptidyl peptidase 4 to the catalytic action of the enzyme” (PLOS ONE, 2024)
Where a chain is given by its changes, count along the chain named. Numbers in names are those of the source.

B1: wild type DP4 (Homo sapiens) (protein)
chain: ADSRKTYTLTDYLKNTYRLKLYSLRWISDHEYLYKQENNILVFNAEYGNSSVFLENSTFDEFGHSINDYSISPDGQFILLEYNYVKQWRHSYTASYDIYDLNKRQLITEERIPNNTQWVTWSPVGHKLAYVWNNDIYVKIEPNLPSYRITWTGKEDIIYNGITDWVYEEEVFSAYSALWWSPNGTFLAYAQFNDTEVPLIEYSFYSDESLQYPKTVRVPYPKAGAVNPTVKFFVVNTDSLSSVTNATSIQITAPASMLIGDHYLCDVTWATQERISLQWLRRIQNYSVMDICDYDESSGRWNCLVARQHIEMSTTGWVGRFRPSEPHFTLDGNSFYKIISNEEGYRHICYFQIDKKDCTFITKGTWEVIGIEALTSDYLYYISNEYKGMPGGRNLYKIQLSDYTKVTCLSCELNPERCQYYSVSFSKEAKYYQLRCSGPGLPLYTLHSSVNDKGLRVLEDNSALDKMLQNVQMPSKKLDFIILNETKFWYQMILPPHFDKSKKYPLLLDVYAGPCSQKADTVFRLNWATYLASTENIIVASFDGRGSGYQGDKIMHAINRRLGTFEVEDQIEAARQFSKMGFVDNKRIAIWGWSYGGYVTSMVLGSGSGVFKCGIAVAPVSRWEYYDSVYTERYMGLPTPEDNLDHYRNSTVMSRAENFKQVEYLLIHGTADDNVHFQQSAQISKALVDVGVDFQAMWYTDEDHGIASSTAHQHIYTHMSHFIKQCFSLP
B2: DP4 variant R125A (Homo sapiens; R125A) (protein)
chain: B1 chain with R89A

Substrate: CC(C)C[C@H](NC(=O)[C@@H]1CCCN1C(=O)[C@@H](N)C(C)C)C(=O)O
Assay: purified protein, by the assay type
Details: T = 30 °C, 100 mM Tris-HCl, pH 7.6, substrate concentration 25 μM
[1] = other: wild type DP4, cleavage of diprotin B as substrate
[2] = other: R125A, cleavage of diprotin B as substrate

Row | Protein | Km [1] | kcat [1] | kcat/Km [1] | Km [2] | kcat [2] | kcat/Km [2]
1 | B1 | (7.2 ± 0.58) · 10^−6 M | 7 s⁻¹ | 970000 M⁻¹ s⁻¹ |  |  | 
2 | B2 |  |  |  | (3.7 ± 0.26) · 10^−4 M | 7.7 s⁻¹ | 21000 M⁻¹ s⁻¹
